Results: patent US20260049138A1 (Chugai, published 2026)
Residue numbers refer to the chain shown, from its start. Names may count otherwise.

B1: GLS3000 S25V one-arm antibody (antibody, human IgG1, kappa, L234A L235A, N297A, name in Kabat numbering)
heavy: QVQLVESGGGVVQPGRSLRLSCAASGFTFSNAWMHWVRQAPGKGLEWVAQIKAKSNNYATYYAESVKGRFTISRDDSKNSLYLQMNSLKTEDTAVYYCRYVHYGAYYGVDAWGQGTTVTVSSASTKGPSVFPLAPSSKSTSGGTAALGCLVKDYFPEPVTVSWNSGALTSGVHTFPAVLQSSGLYSLSSVVTVPSSSLGTQTYICNVNHKPSNTKVDKKVEPKSCDKTHTCPPCPAPEAAGGPSVFLFPPKPKDTLMISRTPEVTCVVVDVSHEDPEVKFNWYVDGVEVHNAKTKPREEQYASTYRVVSVLTVLHQDWLNGKEYKCKVSNKALPAPIEKTISKAKGQPREPQVYTLPPSRCELTKNQVSLSCAVKGFYPSDIAVEWESNGQPENNYKTTPPVLDSDGSFFLVSKLTVDKSRWQQGNVFSCSVMHEALHNHYTQKSLSLSPDYKDDDDK
chain: EPKSSDKTHTCPPCPAPELLGGPSVFLFPPKPKDTLMISRTPEVTCVVVDVSHEDPEVKFNWYVDGVEVHNAKTKPREEQYNSTYRVVSVLTVLHQDWLNGKEYKCKVSNKALPAPIEKTISKAKGQPREPQVCTLPPSRDELTKNQVSLWCLVKGFYPSDIAVEWESNGQPENNYKTTPPVLDSDGSFFLYSKLTVDKSRWQQGNVFSCSVMHEALHNRYTQKSLSLSP
light: DIVMTQSPLSLPVTPGEPASISCRVSQSLVHSNRNTYLHWYQQKPGQAPRLLIYKVSNRFSGVPDRFSGSGSGTDFTLKISRVEAEDVGVYYCGQGTQVPYTFGQGTKLEIKRTVAAPSVFIFPPSDEQLKSGTASVVCLLNNFYPREAKVQWKVDNALQSGNSQESVTEQDSKDSTYSLSSTLTLSKADYEKHKVYACEVTHQGLSSPVTKSFNRGEC
B2: GLS3000 S27eN one-arm antibody (antibody, human IgG1, kappa, L234A L235A, N297A, name in Kabat numbering)
heavy: B1 heavy
chain: B1 chain
light: B1 light with V25S, S32N
B3: GLS3000 S26P one-arm antibody (antibody, human IgG1, kappa, L234A L235A, N297A, name in Kabat numbering)
heavy: B1 heavy
chain: B1 chain
light: B1 light with V25S, S26P
B4: GLS3000 S27eD one-arm antibody (antibody, human IgG1, kappa, L234A L235A, N297A, name in Kabat numbering)
heavy: B1 heavy
chain: B1 chain
light: B1 light with V25S, S32D
B5: GLS3000 S27eP one-arm antibody (antibody, human IgG1, kappa, L234A L235A, N297A, name in Kabat numbering)
heavy: B1 heavy
chain: B1 chain
light: B1 light with V25S, S32P
B6: GLS3000 S27aP one-arm antibody (antibody, human IgG1, kappa, L234A L235A, N297A, name in Kabat numbering)
heavy: B1 heavy
chain: B1 chain
light: B1 light with V25S, S28P
B7: GLS3000 S26D one-arm antibody (antibody, human IgG1, kappa, L234A L235A, N297A, name in Kabat numbering)
heavy: B1 heavy
chain: B1 chain
light: B1 light with V25S, S26D
B8: GLS3000 S27aD one-arm antibody (antibody, human IgG1, kappa, L234A L235A, N297A, name in Kabat numbering)
heavy: B1 heavy
chain: B1 chain
light: B1 light with V25S, S28D
B9: GLS3000 S27eH one-arm antibody (antibody, human IgG1, kappa, L234A L235A, N297A, name in Kabat numbering)
heavy: B1 heavy
chain: B1 chain
light: B1 light with V25S, S32H
B10: GLS3000 S27aY one-arm antibody (antibody, human IgG1, kappa, L234A L235A, N297A, name in Kabat numbering)
heavy: B1 heavy
chain: B1 chain
light: B1 light with V25S, S28Y
B11: GLS3000 S27eE one-arm antibody (antibody, human IgG1, kappa, L234A L235A, N297A, name in Kabat numbering)
heavy: B1 heavy
chain: B1 chain
light: B1 light with V25S, S32E
B12: GLS3000 S26E one-arm antibody (antibody, human IgG1, kappa, L234A L235A, N297A, name in Kabat numbering)
heavy: B1 heavy
chain: B1 chain
light: B1 light with V25S, S26E
B13: GLS3000 S27eG one-arm antibody (antibody, human IgG1, kappa, L234A L235A, N297A, name in Kabat numbering)
heavy: B1 heavy
chain: B1 chain
light: B1 light with V25S, S32G
B14: GLS3000 S27aI one-arm antibody (antibody, human IgG1, kappa, L234A L235A, N297A, name in Kabat numbering)
heavy: B1 heavy
chain: B1 chain
light: B1 light with V25S, S28I
B15: GLS3000 S27eF one-arm antibody (antibody, human IgG1, kappa, L234A L235A, N297A, name in Kabat numbering)
heavy: B1 heavy
chain: B1 chain
light: B1 light with V25S, S32F
B16: GLS3000 S27eA one-arm antibody (antibody, human IgG1, kappa, L234A L235A, N297A, name in Kabat numbering)
heavy: B1 heavy
chain: B1 chain
light: B1 light with V25S, S32A
B17: GLS3000 S27eM one-arm antibody (antibody, human IgG1, kappa, L234A L235A, N297A, name in Kabat numbering)
heavy: B1 heavy
chain: B1 chain
light: B1 light with V25S, S32M
B18: GLS3000 S27eK one-arm antibody (antibody, human IgG1, kappa, L234A L235A, N297A, name in Kabat numbering)
heavy: B1 heavy
chain: B1 chain
light: B1 light with V25S, S32K
B19: GLS3000 S27eL one-arm antibody (antibody, human IgG1, kappa, L234A L235A, N297A, name in Kabat numbering)
heavy: B1 heavy
chain: B1 chain
light: B1 light with V25S, S32L
B20: GLS3000 S27eI one-arm antibody (antibody, human IgG1, kappa, L234A L235A, N297A, name in Kabat numbering)
heavy: B1 heavy
chain: B1 chain
light: B1 light with V25S, S32I
B21: GLS3000 S27aE one-arm antibody (antibody, human IgG1, kappa, L234A L235A, N297A, name in Kabat numbering)
heavy: B1 heavy
chain: B1 chain
light: B1 light with V25S, S28E
B22: GLS3000 S27aN one-arm antibody (antibody, human IgG1, kappa, L234A L235A, N297A, name in Kabat numbering)
heavy: B1 heavy
chain: B1 chain
light: B1 light with V25S, S28N
B23: GLS3000 S27aG one-arm antibody (antibody, human IgG1, kappa, L234A L235A, N297A, name in Kabat numbering)
heavy: B1 heavy
chain: B1 chain
light: B1 light with V25S, S28G

Target: T1, CD3ε homodimer protein (human, UniProt P07766 23-126, limits assumed)
T1 construct: also called CD3 (CD3ε)
Assay: SPR Biacore T200, CD3ε homodimer on chip;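 note: Light-chain single-residue variant antibodies injected over amine-coupled CD3ε homodimer on a CM4 chip at 25 °C, bound amount divided by that of the GLS3000-containing antibody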

T1 sequence (P07766 23-126 limits assumed): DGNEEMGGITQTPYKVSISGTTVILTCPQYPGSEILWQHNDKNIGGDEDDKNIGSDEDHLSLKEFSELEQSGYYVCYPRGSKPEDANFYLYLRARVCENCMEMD

Binder	ratio of amount bound vs unaltered GLS3000
B1	0.73
B2	1.16
B3	0.78
B4	0.69
B5	1.26
B6	0.99
B7	0.86
B8	0.79
B9	1.23
B10	1.1
B11	0.76
B12	0.74
B13	1.04
B14	1
B15	1.32
B16	1.03
B17	1.23
B18	1.59
B19	1.17
B20	1.07
B21	0.81
B22	1.1
B23	1.03
